Data taken from article PMC4052440.
Changes are numbered by the printed parent chain. Names may count otherwise.

B1: yeast Atm1p (Saccharomyces cerevisiae S288C) (protein)
chain: SPVIFTVSKLSTQRPLLFNSAVNLWNQAQKDITHKKSVEQFSSAPKVKTQVKKTSKAPTLSELKILKDLFRYIWPKGNNKVRIRVLIALGLLISAKILNVQVPFFFKQTIDSMNIAWDDPTVALPAAIGLTILCYGVARFGSVLFGELRNAVFAKVAQNAIRTVSLQTFQHLMKLDLGWHLSRQTGGLTRAMDRGTKGISQVLTAMVFHIIPISFEISVVCGILTYQFGASFAAITFSTMLLYSIFTIKTTAWRTHFRRDANKADNKAASVALDSLINFEAVKYFNNEKYLADKYNGSLMNYRDSQIKVSQSLAFLNSGQNLIFTTALTAMMYMGCTGVIGGNLTVGDLVLINQLVFQLSVPLNFLGSVYRDLKQSLIDMETLFKLRKNEVKIKNAERPLMLPENVPYDITFENVTFGYHPDRKILKNASFTIPAGWKTAIVGSSGSGKSTILKLVFRFYDPESGRILINGRDIKEYDIDALRKVIGVVPQDTPLFNDTIWENVKFGRIDATDEEVITVVEKAQLAPLIKKLPQGFDTIVGERGLMISGGEKQRLAIARVLLKNARIMFFDEATSALDTHTEQALLRTIRDNFTSGSRTSVYIAHRLRTIADADKIIVLDNGRVREEGKHLELLAMPGSLYRELWTIQEDLDHLENELKDQQEL
B2: yeast Atm1p (Saccharomyces cerevisiae S288C; R284E) (protein)
chain: B1 chain with R258E

Substrate: Nc1ncnc2c1ncn2[C@@H]1O[C@H](COP(=O)(O)OP(=O)(O)OP(=O)(O)O)[C@@H](O)[C@H]1O
Assay: ATPase assay
Format: biochemical, Saccharomyces cerevisiae
Details: Mg-ATP
[1] = no cluster, table prints the error as ± 5.3

Protein | Km [1] | kcat [1] | Km (from the cluster-activation fit, table title prints R48E, column R284E)
B1 | 54.6 ± 0.4 µM | 0.0322 ± 0.0005 s⁻¹ | –
B2 | – | – | 55.0 ± 16.5 µM
